Measured values reported in patent publication US20190314479A1.

Target: HLA-A2 molecules
Assay: T2A2 peptide binding assay to HLA-A2

Binder | T2A2 Binding
YMLDLQPET (modifications not checked) [HPV-16 E7 native peptide E7-1 (E7 11-19)] | 1100
QQYNKPLCDL (modifications not checked) [HPV-16 E6 native peptide E6-3 (E6 90-99)] | 1020
